Results taken from patent publication US20210002376A1.
Where two headings read alike, the source gives them in different places.

How the values were obtained:
HER3-His = HER3-His (UniProt P21860); assay: ELISA, coated His-tagged HER3 ECD, anti-human Fc-HRP
HER3-Fc fusion protein [1] = target: HER3-Fc fusion protein (UniProt P21860); assay: ELISA, coated HER3-Fc, anti-human Fab-HRP
HER3-Fc fusion protein [2] = target: HER3-Fc fusion protein (UniProt P21860); assay: ELISA, coated HER3-Fc, anti-human Fab-HRP; remark: listed apart in the source

B1: 3-43-IgG (antibody, from a related filing, V domains shown)
VH: QVQLQQSGPGLVKPSQTLSLTCAISGDSVSSNRAAWNWIRQSPSRGLEWLGRTYYRSKWYNDYAQSLKSRITINPDTPKNQFSLQLNSVTPEDTAVYYCARDGQLGLDALDIWGQGTMVTVSS
VL: QAGLTQPPAVSVAPGQTASITCGRDNIGSRSVHWYQQKPGQAPVLVVYDDSDRPAGIPERFSGSNYENTATLTISRVEAGDEADYYCQVWGITSDHVVFGGGTKLTVLC
Binder B1 has an EC50 (HER3-His) of 0.23 nM, an EC50 (HER3-Fc fusion protein [1]) of 0.21 nM and an EC50 (HER3-Fc fusion protein [2]) of 0.2 nM.
